In patent US20020143164A1 (published 2002):

Target: Endogenous Ras of HEK-293T cells (human (endogenous in HEK-293T cells))
Experiment: cell-based or functional assay

B1: Flag-tagged full-length GRF4 (enzyme, not shown: small tags and cut ends)
chain: MKPLAIPANHGVMGQQEKHSLPADFTKLHLTDSLHPQVTHVSSSHSGCSITSDSGSSSLSDIYQATESEAGDMDLSGLPETAVDSEDDDDEEDIERASDPLMSRDIVRDCLEKDPIDRTDDDIEQLLEFMHQLPAFANMTMSVRRELCAVMVFAVVERAGTIVLNDGEELDSWSVILNGSVEVTYPDGKAEILCMGNSFGVSPTMDKEYMKGVMRTKVDDCQFVCIAQQDYCRILNQVEKNMQKVEEEGEIVMVKEHRELDRTGTRKGHIVIKGTSERLTMHLVEEHSVVDPTFIEDFLLTYRTFLSSPMEVGKKLLEWFNDPSLRDKVTRVVLLWVNNHFNDFEGDPAMTRFLEEFENNLEREKMGGHLRLLNIACAAKAKRRLMTLTKPSREAPLPFILLGGSEKGFGIFVDSVDSGSKATEAGLKRGDQILEVNGQNFENIQLSKAMEILRNNTHLSITVKTNLFVFKELLTRLSEEKRNGAPHLPKIGDIKKASRYSIPDLAVDVEQVIGLEKVNKKSKANTVGGRNKLKKILDKTRISILPQKPYNDIGIGQSQDDSIVGLRQTKHIPTALPVSGTLSSSNPDLLQSHHRILDFSATPDLPDQVLRVFKADQQSRYIMISKDTTAKEVVIQAIREFAVTATPDQYSLCEVSVTPEGVIKQRRLPDQLSKLADRIQLSGRYYLKNNMETETLCSDEDAQELLRESQISLLQLSTVEVATQLSMRNFELFRNIEPTEYIDDLFKLRSKTSCANLKRFEEVINQETFWVASEILRETNQLKRMKIIKHFIKIALHCRECKNFNSMFAIISGLNLAPVARLRTTWEKLPNKYEKLFQDLQDLFDPSRNMAKYRNVLNSQNLQPPIIPLFPVIKKDLTFLHEGNDSKVDGLVNFEKLRMIAKEIRHVGRMASVNMDPALMFRTRKKKWRSLGSLSQGSTNATVLDVAQTGGHKKRVRRSSFLNAKKLYEDAQMARKVKQYLSNLELEMDEESLQTLSLQCEPATNTLPKNPGDKKPVKSETSPVAPRAGSQQKAQSLPQPQQQPPPAHKINQGLQVPAVSLYPSRKKVPVKDLPPFGINSPQALKKILSLSEEGSLERHKKQAEDTISNASSQLSSPPTSPQSSPRKGYTLAPSGTVDNFSDSGHSEISSRSSIVSNSSFDSVPVSLHDERRQRHSVSIVETNLGMGRMERRTMIEPDQYSLGSYAPMSEGRGLYATATVISSPSTEELSQDQGDRASLDAADSGRGSWTSCSSGSHDNIQTIQHQRSWETLPFGHTHFDYSGDPAGLWASSSHMDQIMFSDHSTKYNRQNQSRESLEQAQSRASWASSTGYWGEDSEGDTGTIKRRGGKDVSIEAESSSLTSVTTEETKPVPMPAHIAVASSTTKGLIARKEGRYREPPPTPPGYIGIPITDFPEGHSHPARKPPDYNVALQRSRMVARSSDTAGPSSVQQPHGHPTSSRPVNKPQWHKPNESDPRLAPYQSQGFSTEEDEDEQVSAV
- enhancement of Ras activation in cells after 8-Br-cAMP (GST-Raf1-RBD precipitation): 3.9 fold
- enhancement of Ras activation in cells after 8-Br-cAMP plus H-89 (GST-Raf1-RBD precipitation): 3.5 fold
